# In patent publication US20100221798:
# Biological target: octadecenoyl-ACP
protein,measurement,value
Synechococcus elongatus PCC7942 orf1594 protein (YP-400611; Synpcc7942-1594; acyl-ACP reductase) with C-terminal His-tag (protein) MFGLIGHLTSLEQARDVSRRMGYDEYADQGLEFWSSAPPQIVDEITVTSATGKVIHGRYIESCFLPEMLAARRFKTATRKVLNAMSHAQKHGIDISALGGFTSIIFENFDLASLRQVRDTTLEFERFTTGNTHTAYVICRQVEAAAKTLGIDITQATVAVVGATGDIGSAVCRWLDLKLGVGDLILTARNQERLDNLQAELGRGKILPLEAALPEADFIVWVASMPQGVVIDPATLKQPCVLIDGGYPKNLGSKVQGEGIYVLNGGVVEHCFDIDWQIMSAAEMARPERQMFACFAEAMLLEFEGWHTNFSWGRNQITIEKMEAIGEASVRHGFQPLALAI,"Km for the reduction of octadecenoyl-ACP in the presence of 2 mM NADPH (in vitro reductase assay, aldehyde formed measured by GC/MS)",7.8 ± 2 µM
